molecular target: Rhesus/Macaque TNF (Rhesus/Macaque, UniProt P48094 77-233); test: cell-based or functional assay
Sequence (P48094 77-233 limits assumed): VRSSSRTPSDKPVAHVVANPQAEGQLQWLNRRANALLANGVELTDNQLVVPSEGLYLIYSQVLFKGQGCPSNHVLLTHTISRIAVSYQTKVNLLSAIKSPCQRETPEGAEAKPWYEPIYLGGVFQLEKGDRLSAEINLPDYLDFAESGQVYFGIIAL

rhesus TNF neutralization IC50 [nM] | Binder
0.02 | hMAK199-AM5 (antibody, V domains shown) VH: EVQLVQSGAEVKKPGASVKVSCKASGYTFRNYGIIWVRQAPGQGLEWMGWINTYTGKPTYAQKFQGRVTMTTDTSTSTAYMELSSLRSEDTAVYFCARKLFTTVDVTDNAMDYWGQGTTVTVSS VL: DIQMTQSPSSLSASVGDRVTITCRASQDISNYLNWYQQKPGKAPKLLIYYTSRLQSGVPSRFSGSGSGTDYTLTISSLQPEDFATYFCQQGNTWPPTFGQGTKLEIK
0.089 | hMAK199-AM9 (antibody, V domains shown) VH: EVQLVQSGAEVKKPGASVKVSCKASGYTFSNYGINWVRQAPGQGLEWMGWINTYTGQPSYAQKFQGRVTMTTDTSTSTAYMELSSLRSEDTAVYYCARKLFKTEAVTDYAMDYWGQGTTVTVSS VL: DIQMTQSPSSLSASVGDRVTITCRASQNIYNVLNWYQQKPGKAPKLLIYYASRLQSGVPSRFSGSGSGTDFTLTISSLQPEDFATYFCQQGNTMPPTFGQGTKLEIK
0.004 | hMAK199-AM6 (antibody, V domains shown) VH: EVQLVQSGAEVKKPGASVKVSCKASGYTFNNYGINWVRQAPGQGLEWMGWINTYTGKPTYAQKFQGRVTMTTDTSTSTAYMELSSLRSEDTAVYFCARKFRNTVAVTDYAMDYWGQGTTVTVSS VL: DIQMTQSPSSLSASVGDRVTITCRASQDIYDVLNWYQQKPGKAPKLLIYYASRLQSGVPSRFSGSGSGTDFTLTISSLQPEDFATYYCQQGITLPPTFGQGTKLEIK
0.051 | hMAK199-AM7 (antibody, V domains shown) VH: EVQLVQSGAEVKKPGASVKVSCKASGYTFRNYGITWVRQAPGQGLEWMGWINTYTGKPTYAQKFQGRVTMTTDTSTSTAYMELSSLRSEDTAVYFCARKLFTTMDVTDNAMDYWGQGTTVTVSS VL: DIQMTQSPSSLSASVGDRVTITCRASQDISNYLNWYQQKPGKAPKLLIYYTSRLQSGVPSRFSGSGSGTDYTLTISSLQPEDFATYFCQQGNTWPPTFGQGTKLEIK
0.019 | hMAK199-AM3 (antibody, V domains shown) VH: EVQLVQSGAEVKKPGASVKVSCKASGYTFNNYGIIWVRQAPGQGLEWMGWINTYTGVPTYAQKFQGRVTMTTDTSTSTAYMELSSLRSEDTAVYYCARKLFNTVDVTDNAMDYWGQGTTVTVSS VL: DIQMTQSPSSLSASVGDRVTITCRASQDIYNYLNWYQQKPGKAPKLLIYYTSRLQSGVPSRFSGSGSGTDYTLTISSLQPEDFATYFCQQGNTQPPTFGQGTKLEIK
0.005 | hMAK199-AM4 (antibody, V domains shown) VH: EVQLVQSGAEVKKPGASVKVSCKASGYTFNNYGIIWVRQAPGQGLEWMGWINTYTGKPTYAQKFQGRVTMTTDTSTSTAYMELSSLRSEDTAVYYCARKLFNTVAVTDNAMDYWGQGTTVTVSS VL: DIQMTQSPSSLSASVGDRVTITCRASQDIENYLNWYQQKPGKAPKLLIYYTSRLQSGVPSRFSGSGSGTDFTLTISSLQPEDFATYFCQQGNTQPPTFGQGTKLEIK
0.01 | hMAK199-AM2 (antibody, V domains shown) VH: EVQLVQSGAEVKKPGASVKVSCKASGYTFNNYGIIWVRQAPGQGLEWMGWINTYTGKPTYAQKLQGRVTMTTDTSTSTAYMELSSLRSEDTAVYFCARKLFNTVDVTDNAMDYWGQGTTVTVSS VL: DIQMTQSPSSLSASVGDRVTITCRASQDISNYLNWYQQKPGKAPKLLIYYTSRLQSGVPSRFSGSGSGTDYTLTISSLQPEDFATYFCQQGNSWPPTFGQGTKLEIK
0.034 | hMAK199-AM10 (antibody, V domains shown) VH: EVQLVQSGAEVKKPGASVKVSCKASGYTFNNYGIIWVRQAPGQGLEWMGWINTYSGKPTYAQKFQGRVTMTTDTSTSTAYMELSSLRSEDTAVYFCARKLFTTMDVTDNAMDYWGQGTTVTVSS VL: DIQMTQSPSSLSASVGDRVTITCRASQDISNFLNWYQQKPGKAPKLLIYYTSRLQSGVPSRFSGSGSGTDYTLTISSLQPEDFATYFCQQGNTQPPTFGQGTKLEIK

molecular target: Rhesus/Macaque TNF (rhesus/macaque, UniProt P48094 77-233); test: cell-based or functional assay
Sequence (P48094 77-233 limits assumed): as the sequence (P48094 77-233 limits assumed) above

rhesus TNF neutralization IC50 (L929 bioassay) [nM] | Binder
0.596 | hMAK195-AM20 (antibody, V domains shown) VH: EVQLVESGGGLVQPGGSLRLSCAASGFTFSNYGVTWVRQAPGKGLEWVSMIWADGSTHYASSVKGRFTISRDNSKNTLYLQMNSLRAEDTAVYYCAREWQHGPVAYWGQGTLVTVSS VL: DIQMTQSPSSLSASVGDRVTITCKASQLVSSAVAWYQQKPGKAPKLLIYWASTRHTGVPSRFSGSGSGTDFTLTISSLQPEDFATYYCQQHYSTPFTFGQGTKLEIKR
> 150 | hMAK195-AM15 (antibody, V domains shown) VH: EVQLVESGGGLVQPGGSLRLSCAASGFTFSNYGVTWVRQAPGKGLEWVSMIWSDGSTDYASSVKGRFTISRDNSKNTLYLQMNSLRAEDTAVYYCAREWQHGPVAYWGQGTLVTVSS VL: DIQMTQSPSSLSASVGDRVTITCKASQAVSSAVAWYQQKPGKAPKLLIYWASTRHTGVPSRFSGSGSGTDFTLTISSLQPEDFATYYCQQHYSTPFTFGQGTKLEIKR
0.09 | hMAK195-AM21 (antibody, V domains shown) VH: EVQLVESGGGLVQPGGSLRLSCAASGFTFSNYGVTWVRQAPGKGLEWVSMIWADGSTHYASSVKGRFTISRDNSKNTLYLQMNSLRAEDTAVYYCAREWQHGPVAYWGQGTLVTVSS VL: DIQMTQSPSSLSASVGDRVTITCRASQLVSSAVAWYQQKPGKAPKLLIYWASARHTGVPSRFSGSGSGTDFTLTISSLQPEDFATYYCQQHYKTPFTFGQGTKLEIKR
0.271 | hMAK195-AM22 (antibody, V domains shown) VH: EVQLVESGGGLVQPGGSLRLSCAASGFTFSNYGVTWVRQAPGKGLEWVSMIWADGSTHYASSVKGRFTISRDNSKNTLYLQMNSLRAEDTAVYYCAREWQHGPVAYWGQGTLVTVSS VL: DIQMTQSPSSLSASVGDRVTITCRASQLVSSAVAWYQQKPGKAPKLLIYWASTRHSGVPSRFSGSGSGTDFTLTISSLQPEDFATYYCQQHYRTPFTFGQGTKLEIKR
0.441 | hMAK195-AM18 (antibody, V domains shown) VH: EVQLVESGGGLVQPGGSLRLSCAASGFTFSNYGVTWVRQAPGKGLEWVSMIWADGSTHYASSVKGRFTISRDNSKNTLYLQMNSLRAEDTAVYYCAREWQHGPSAYWGQGTLVTVSS VL: DIQMTQSPSSLSASVGDRVTITCKASQAVSSAVAWYQQKPGKAPKLLIYWASTRHTGVPSRFSGSGSGTDFTLTISSLQPEDFATYYCQQHYSTPFTFGQGTKLEIKR
1.21 | hMAK195-AM19 (antibody, V domains shown) VH: EVQLVESGGGLVQPGGSLRLSCAASGFTFSNYGVSWVRQAPGKGLEWVSMIWADGSTHYASSLKGRFTISRDNSKNTLYLQMNSLRAEDTAVYYCAREWQHGPAAYWGQGTLVTVSS VL: DIQMTQSPSSLSASVGDRVTITCKASQAVSSAVAWYQQKPGKAPKLLIYWASTRHTGVPSRFSGSGSGTDFTLTISSLQPEDFATYYCQQHYSTPFTFGQGTKLEIKR
4.64 | hMAK195-AM13 (antibody, V domains shown) VH: EVQLVESGGGLVQPGGSLRLSCAASGFTFSNYGVSWVRQAPGKGLEWVSLIRGDGSTDYASSLKGRFTISRDNSKNTLYLQMNSLRAEDTAVYYCAREWHHGPVAYWGQGTLVTVSS VL: DIQMTQSPSSLSASVGDRVTITCKASQAVSSAVAWYQQKPGKAPKLLIYWASTRHTGVPSRFSGSGSGTDFTLTISSLQPEDFATYYCQQHYSTPFTFGQGTKLEIKR
0.557 | hMAK195-AM24 (antibody, V domains shown) VH: EVQLVESGGGLVQPGGSLRLSCAASGFTFSNYGVEWVRQAPGKGLEWVSGIWADGSTHYADTVKSRFTISRDNSKNTLYLQMNSLRAEDTAVYYCAREWQHGPVAYWGQGTLVTVSS VL: DIQMTQSPSSLSASVGDRVTITCKASQLVSSAVAWYQQKPGKAPKLLIYWASTLHTGVPSRFSGSGSGTDFTLTISSLQPEDFATYYCQQHYRTPFTFGQGTKLEIKR
0.249 | hMAK195-AM26 (antibody, V domains shown) VH: EVQLVESGGGLVQPGGSLRLSCAASGFTFSNYGVSWVRQAPGKGLEWVSMIWADGSTHYADTVKGRFTISRDNSKNTLYLQMNSLRAEDTAVYYCAREWQHGPLAYWGQGTLVTVSS VL: DIQMTQSPSSLSASVGDRVTITCRASQLVSSAVAWYQQKPGKAPKLLIYWASTRHTGVPSRFSGSGSGTDFTLTISSLQPEDFATYYCQQHYRTPFTFGQGTKLEIKR
> 25 | hMAK195-AM11 (antibody, V domains shown) VH: EVQLVESGGGLVQPGGSLRLSCAASGFTFSNYGVNWVRQAPGKGLEWVSMIAADGFTDYASSVKGRFTISRDNSKNTLYLQMNSLRAEDTAVYYCAREWHHGPVAYWGQGTLVTVSS VL: DIQMTQSPSSLSASVGDRVTITCKASQAVSSAVAWYQQKPGKAPKLLIYWASTRHTGVPSRFSGSGSGTDFTLTISSLQPEDFATYYCQQHYSTPFTFGQGTKLEIKR
2.63 | hMAK195-AM23 (antibody, V domains shown) VH: EVQLVESGGGLVQPGGSLRLSCAASGFTFSNYGVTWVRQAPGKGLEWVSMIWADGSTHYADSVKSRFTISRDNSKNTLYLQMNSLRAEDTAVYYCAREWQHGPLAYWGQGTLVTVSS VL: DIQMTQSPSSLSASVGDRVTITCRASQLVSSAVAWYQQKPGKAPKLLIYWASTLHSGVPSRFSGSGSGTDFTLTISSLQPEDFATYYCQQHYSTPFTFGQGTKLEIKR

From patent publication US20130164256A1 (AbbVie / Abbott, published 2013)
